Measurements reported in patent publication US20100047163A1 (LAWRENCE BERKELEY NATIONAL LABORATORY, published 2010).
Several values for one entry are separate records, joined by “and”; a condition that tells them apart may be missing. Identical values can stand only once.

B1: LDL receptor (LDLR) on human glioblastoma multiforme cells (receptor)
chain: not shown
notes: whole, on cells; also called cell surface LDLR

Tests used:
[1] = molecular target: T1, native plasma LDL (low density lipoprotein; LDLR ligand apoB100 on its surface) (human, UniProt P04114 28-4563); test: ^125I-LDL saturation binding to A-172 cells
T1 construct: Lipoprotein particle isolated from plasma; also called native LDL

[2] = molecular target: T1, native plasma LDL (low density …); test: ^125I-LDL saturation binding to SF-763 cells
[3] = molecular target: T1, native plasma LDL (low density …); test: ^125I-LDL saturation binding to SF-767 cells
[4] = molecular target: T1, native plasma LDL (low density …); test: ^125I-LDL saturation binding to U-343 MG cells
[5] = molecular target: T1, native plasma LDL (low density …); test: ^125I-LDL saturation binding to U-251 MG cells (average of 2 experiments)
[6] = molecular target: T1, native plasma LDL (low density …); test: ^125I-LDL saturation binding to SF-539 cells
[7] = molecular target: B1; test: cell-based or functional assay

T1 sequence (P04114 28-4563 limits assumed): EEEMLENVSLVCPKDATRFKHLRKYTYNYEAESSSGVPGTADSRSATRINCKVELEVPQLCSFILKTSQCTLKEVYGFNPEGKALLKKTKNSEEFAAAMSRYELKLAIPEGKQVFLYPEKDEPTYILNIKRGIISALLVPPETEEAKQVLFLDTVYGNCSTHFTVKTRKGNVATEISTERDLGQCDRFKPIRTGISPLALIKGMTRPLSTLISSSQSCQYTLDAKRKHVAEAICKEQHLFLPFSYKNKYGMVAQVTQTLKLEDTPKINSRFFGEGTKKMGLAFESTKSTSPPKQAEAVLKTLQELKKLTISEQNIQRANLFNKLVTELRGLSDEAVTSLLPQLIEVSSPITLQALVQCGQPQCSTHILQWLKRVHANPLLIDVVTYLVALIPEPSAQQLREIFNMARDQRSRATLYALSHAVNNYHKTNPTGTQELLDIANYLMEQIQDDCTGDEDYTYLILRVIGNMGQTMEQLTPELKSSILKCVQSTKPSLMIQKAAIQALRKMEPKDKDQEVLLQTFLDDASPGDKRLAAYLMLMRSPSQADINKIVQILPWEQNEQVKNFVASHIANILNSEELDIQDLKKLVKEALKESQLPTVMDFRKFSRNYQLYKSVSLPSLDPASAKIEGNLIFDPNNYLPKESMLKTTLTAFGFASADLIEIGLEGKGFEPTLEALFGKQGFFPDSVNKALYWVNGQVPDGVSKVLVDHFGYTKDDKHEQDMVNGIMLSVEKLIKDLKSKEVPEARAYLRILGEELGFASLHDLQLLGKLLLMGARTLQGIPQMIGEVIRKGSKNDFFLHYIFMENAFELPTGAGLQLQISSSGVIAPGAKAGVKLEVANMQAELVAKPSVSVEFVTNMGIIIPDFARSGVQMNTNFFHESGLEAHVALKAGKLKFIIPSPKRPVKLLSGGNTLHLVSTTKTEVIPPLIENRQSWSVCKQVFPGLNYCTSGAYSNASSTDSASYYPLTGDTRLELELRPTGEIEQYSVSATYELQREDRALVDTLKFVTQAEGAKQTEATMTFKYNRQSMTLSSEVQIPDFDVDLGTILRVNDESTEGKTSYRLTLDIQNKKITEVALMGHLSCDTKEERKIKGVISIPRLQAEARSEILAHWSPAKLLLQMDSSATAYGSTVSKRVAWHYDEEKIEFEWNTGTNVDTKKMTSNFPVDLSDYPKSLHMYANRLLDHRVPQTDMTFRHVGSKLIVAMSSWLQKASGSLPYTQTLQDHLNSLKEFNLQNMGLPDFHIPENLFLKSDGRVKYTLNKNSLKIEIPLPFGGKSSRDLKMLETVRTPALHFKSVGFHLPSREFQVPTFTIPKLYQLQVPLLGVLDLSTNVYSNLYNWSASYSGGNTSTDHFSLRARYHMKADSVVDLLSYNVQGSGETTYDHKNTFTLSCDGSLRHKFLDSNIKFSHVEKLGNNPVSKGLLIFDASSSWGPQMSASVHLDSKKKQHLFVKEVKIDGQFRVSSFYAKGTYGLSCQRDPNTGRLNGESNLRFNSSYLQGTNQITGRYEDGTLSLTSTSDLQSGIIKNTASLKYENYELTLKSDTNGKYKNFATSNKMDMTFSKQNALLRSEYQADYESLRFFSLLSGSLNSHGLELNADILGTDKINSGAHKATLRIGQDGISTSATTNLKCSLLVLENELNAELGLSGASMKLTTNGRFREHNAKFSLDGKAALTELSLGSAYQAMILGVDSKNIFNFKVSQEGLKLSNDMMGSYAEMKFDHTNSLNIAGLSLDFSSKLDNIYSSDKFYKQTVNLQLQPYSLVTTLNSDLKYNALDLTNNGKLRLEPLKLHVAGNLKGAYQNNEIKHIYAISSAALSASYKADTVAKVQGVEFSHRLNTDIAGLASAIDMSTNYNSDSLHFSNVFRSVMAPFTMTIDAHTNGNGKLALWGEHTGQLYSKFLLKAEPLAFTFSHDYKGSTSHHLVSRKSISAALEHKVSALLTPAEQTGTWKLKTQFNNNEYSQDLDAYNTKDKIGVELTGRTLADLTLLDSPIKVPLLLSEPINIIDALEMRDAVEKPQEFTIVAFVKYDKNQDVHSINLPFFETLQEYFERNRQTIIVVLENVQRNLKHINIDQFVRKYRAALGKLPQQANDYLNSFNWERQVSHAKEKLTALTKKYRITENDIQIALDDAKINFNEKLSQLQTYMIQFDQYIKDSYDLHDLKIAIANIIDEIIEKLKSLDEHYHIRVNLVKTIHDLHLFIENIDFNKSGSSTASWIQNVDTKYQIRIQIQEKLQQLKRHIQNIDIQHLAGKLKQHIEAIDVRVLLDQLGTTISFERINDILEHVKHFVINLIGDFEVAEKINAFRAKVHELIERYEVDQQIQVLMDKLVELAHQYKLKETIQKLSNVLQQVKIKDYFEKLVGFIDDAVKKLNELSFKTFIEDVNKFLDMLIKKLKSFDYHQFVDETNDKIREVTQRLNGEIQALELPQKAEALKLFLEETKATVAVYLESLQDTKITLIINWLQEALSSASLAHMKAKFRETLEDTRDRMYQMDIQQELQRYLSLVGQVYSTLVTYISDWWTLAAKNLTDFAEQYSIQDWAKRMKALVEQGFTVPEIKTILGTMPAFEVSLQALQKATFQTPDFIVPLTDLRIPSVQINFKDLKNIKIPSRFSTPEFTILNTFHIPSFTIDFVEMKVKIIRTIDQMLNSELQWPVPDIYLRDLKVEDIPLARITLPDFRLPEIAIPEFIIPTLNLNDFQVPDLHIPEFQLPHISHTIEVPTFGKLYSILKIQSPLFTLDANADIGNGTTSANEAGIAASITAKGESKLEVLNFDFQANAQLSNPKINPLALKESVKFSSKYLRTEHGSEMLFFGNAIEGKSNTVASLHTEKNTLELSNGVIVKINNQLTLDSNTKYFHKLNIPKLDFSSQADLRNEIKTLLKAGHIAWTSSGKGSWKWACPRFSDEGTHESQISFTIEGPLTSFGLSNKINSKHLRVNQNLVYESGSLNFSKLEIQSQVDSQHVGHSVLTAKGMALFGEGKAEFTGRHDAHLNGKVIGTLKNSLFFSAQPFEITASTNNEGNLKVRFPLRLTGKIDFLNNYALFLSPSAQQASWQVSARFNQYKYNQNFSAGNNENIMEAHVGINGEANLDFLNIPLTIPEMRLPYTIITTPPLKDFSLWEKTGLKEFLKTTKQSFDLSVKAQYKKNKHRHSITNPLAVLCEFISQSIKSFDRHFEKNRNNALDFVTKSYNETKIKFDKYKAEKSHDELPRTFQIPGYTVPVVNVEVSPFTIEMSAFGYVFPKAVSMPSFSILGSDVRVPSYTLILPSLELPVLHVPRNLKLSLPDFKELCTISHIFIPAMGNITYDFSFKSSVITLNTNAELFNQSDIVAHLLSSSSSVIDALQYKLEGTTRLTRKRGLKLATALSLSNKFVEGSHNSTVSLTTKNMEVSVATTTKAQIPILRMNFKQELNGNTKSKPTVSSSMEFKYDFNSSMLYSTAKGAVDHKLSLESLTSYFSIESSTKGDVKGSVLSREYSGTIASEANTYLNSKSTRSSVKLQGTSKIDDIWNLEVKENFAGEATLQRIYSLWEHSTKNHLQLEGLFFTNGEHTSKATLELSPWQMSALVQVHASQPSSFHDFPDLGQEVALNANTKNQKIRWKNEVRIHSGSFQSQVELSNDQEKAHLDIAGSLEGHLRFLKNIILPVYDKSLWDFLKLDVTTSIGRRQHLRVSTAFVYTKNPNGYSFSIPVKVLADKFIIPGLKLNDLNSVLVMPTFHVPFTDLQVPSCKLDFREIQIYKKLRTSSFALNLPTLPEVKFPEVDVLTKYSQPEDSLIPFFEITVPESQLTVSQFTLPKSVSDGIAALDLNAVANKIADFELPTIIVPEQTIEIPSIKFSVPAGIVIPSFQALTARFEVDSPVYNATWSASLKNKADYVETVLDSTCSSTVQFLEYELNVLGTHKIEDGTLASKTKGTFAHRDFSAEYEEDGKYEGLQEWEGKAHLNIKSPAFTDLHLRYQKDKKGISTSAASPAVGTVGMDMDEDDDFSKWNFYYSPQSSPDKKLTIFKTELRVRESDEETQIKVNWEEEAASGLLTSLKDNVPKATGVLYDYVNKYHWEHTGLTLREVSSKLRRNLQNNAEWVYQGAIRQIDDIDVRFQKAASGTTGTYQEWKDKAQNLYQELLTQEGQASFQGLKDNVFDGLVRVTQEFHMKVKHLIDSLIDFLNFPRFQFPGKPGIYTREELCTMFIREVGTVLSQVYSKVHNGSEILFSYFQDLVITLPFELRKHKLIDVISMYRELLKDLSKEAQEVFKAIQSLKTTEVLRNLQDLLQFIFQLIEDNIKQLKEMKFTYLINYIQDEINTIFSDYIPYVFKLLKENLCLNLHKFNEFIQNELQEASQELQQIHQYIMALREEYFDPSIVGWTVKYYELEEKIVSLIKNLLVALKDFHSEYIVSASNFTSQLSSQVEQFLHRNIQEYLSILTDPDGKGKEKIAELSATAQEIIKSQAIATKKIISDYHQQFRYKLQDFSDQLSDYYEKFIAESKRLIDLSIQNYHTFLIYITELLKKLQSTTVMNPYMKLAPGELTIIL

Binder	Kd [1]	Kd [2]	Kd [3]	Kd [4]	Kd [5]	Kd [6]	IC50 of SF-763 cell killing, 6 hrs incubation with sLDL-PO, 72 hr total [7] [µM]	IC50 of SF-767 cell killing, 1 hr incubation with sLDL-PO, 72 hr total [7] [µM]	IC50 of SF-767 cell killing, 3 hr incubation with sLDL-PO, 72 hr total [7] [µM]	IC50 of SF-767 cell killing, 6 hr incubation with sLDL-PO, 72 hr total [7] [µM]	IC50 of SF-767 cell killing, 6 hrs incubation with sLDL-PO, 72 hr total [7] [µM]	IC50 of SF-767 cell killing, 12 hr incubation with sLDL-PO, 72 hr total [7] [µM]	IC50 of U-251 cell killing, 6 hrs incubation with sLDL-PO, 72 hr total [7] [µM]
B1	62 µg/mL and 124 nM	60 µg/mL and 120 nM	3.5 µg/mL and 6.98 nM	40 µg/mL and 80 nM	38 µg/mL and 76 nM	50 µg/mL and 100 nM							
Ac-DWLKAFYDKVAEKLKEAFRLTRKRGLKLA-NH2 (also: sLDL particle with paclitaxel oleate in lipid core, not covalently bound) [synthetic LDL containing paclitaxel oleate (sLDL-PO)]							2	20	15	10	7	10	7
